Data published in patent US20190055314A1.
Blank lines part the entries; values can stand above or below the substance they belong to.

What was measured:
[1] = target: full-length monkey CD137 on the cell surface (cynomolgus monkey); experiment: flow cytometry, PMA/ionomycin-activated monkey T cells, antibody 100 nM
[2] = target: Hu_CRD4 (human) (UniProt Q07011); experiment: flow cytometry, yeast display [Cont.]
[3] = target: Hu_CRD1-CRD2 (human) (UniProt Q07011); experiment: flow cytometry, yeast display [Cont.]
Sequence of Hu_CRD1-CRD2 (human) (Q07011 24-86 limits assumed): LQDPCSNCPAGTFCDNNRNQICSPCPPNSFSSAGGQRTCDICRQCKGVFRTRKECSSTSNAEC

[4] = target: full-length human CD137 on the cell surface (human) (UniProt Q07011); experiment: flow cytometry, yeast display [Cont.]
Sequence of full-length human CD137 on the cell surface (human) (Q07011 18-255): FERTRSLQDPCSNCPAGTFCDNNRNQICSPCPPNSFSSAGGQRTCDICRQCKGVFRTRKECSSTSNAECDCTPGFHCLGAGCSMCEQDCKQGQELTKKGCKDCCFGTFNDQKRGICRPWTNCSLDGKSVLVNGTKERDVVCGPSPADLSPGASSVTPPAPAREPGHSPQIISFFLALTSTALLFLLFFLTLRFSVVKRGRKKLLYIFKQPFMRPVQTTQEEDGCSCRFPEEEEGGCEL

[5] = target: Hu_CRD2-CRD3 (human) (UniProt Q07011); experiment: flow cytometry, yeast display [Cont.]
Sequence of Hu_CRD2-CRD3 (human) (Q07011 46-118 limits assumed): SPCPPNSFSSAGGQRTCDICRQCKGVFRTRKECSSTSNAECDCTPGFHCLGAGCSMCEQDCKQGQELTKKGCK

[6] = target: Hu_CRD1-CRD2-CRD3 (human) (UniProt Q07011); experiment: flow cytometry, yeast display [Cont.]
Sequence of Hu_CRD1-CRD2-CRD3 (human) (Q07011 24-118 limits assumed): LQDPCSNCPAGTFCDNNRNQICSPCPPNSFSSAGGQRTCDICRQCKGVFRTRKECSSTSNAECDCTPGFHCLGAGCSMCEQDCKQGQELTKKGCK

[7] = target: Hu_CRD2 (human) (UniProt Q07011); experiment: flow cytometry, yeast display [Cont.]
Sequence of Hu_CRD2 (human) (Q07011 46-86 limits assumed): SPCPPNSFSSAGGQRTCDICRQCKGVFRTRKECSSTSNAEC

[8] = target: full-length mouse CD137 on the cell surface (mouse) (UniProt P20334); experiment: flow cytometry, yeast display [Cont.]
Sequence of full-length mouse CD137 on the cell surface (mouse) (P20334 24-178 limits assumed): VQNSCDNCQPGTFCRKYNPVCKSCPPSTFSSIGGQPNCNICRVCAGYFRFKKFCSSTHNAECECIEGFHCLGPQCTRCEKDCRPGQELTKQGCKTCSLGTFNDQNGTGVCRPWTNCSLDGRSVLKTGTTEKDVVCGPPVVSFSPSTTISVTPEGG

[9] = target: Hu_CRD3-CRD4 (human) (UniProt Q07011); experiment: flow cytometry, yeast display [Cont.]
Sequence of Hu_CRD3-CRD4 (human) (Q07011 87-159 limits assumed): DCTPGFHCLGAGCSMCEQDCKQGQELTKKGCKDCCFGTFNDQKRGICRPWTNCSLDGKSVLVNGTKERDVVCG

[10] = target: Hu_CRD2-CRD3-CRD4 (human) (UniProt Q07011); experiment: flow cytometry, yeast display [Cont.]
Sequence of Hu_CRD2-CRD3-CRD4 (human) (Q07011 46-159 limits assumed): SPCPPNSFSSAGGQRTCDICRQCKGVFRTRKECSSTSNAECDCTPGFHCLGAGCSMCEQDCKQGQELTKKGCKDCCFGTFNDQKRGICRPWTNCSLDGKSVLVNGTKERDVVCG

[11] = target: CD27 overexpressed on HEK293F cells (UniProt P26842); experiment: flow cytometry, HEK293F cells expressing the receptor, antibody 100 nM [Cont.]
Sequence of CD27 overexpressed on HEK293F cells (P26842 20-260 limits assumed): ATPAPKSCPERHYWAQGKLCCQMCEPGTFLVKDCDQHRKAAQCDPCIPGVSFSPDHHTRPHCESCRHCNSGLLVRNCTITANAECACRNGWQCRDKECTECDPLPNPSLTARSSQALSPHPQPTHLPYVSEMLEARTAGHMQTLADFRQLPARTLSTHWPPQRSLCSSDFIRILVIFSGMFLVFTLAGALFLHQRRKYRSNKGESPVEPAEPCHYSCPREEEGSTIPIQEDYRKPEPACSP

[12] = target: OX40 overexpressed on HEK293F cells (UniProt P43489); experiment: as above
Sequence of OX40 overexpressed on HEK293F cells (P43489 29-277 limits assumed): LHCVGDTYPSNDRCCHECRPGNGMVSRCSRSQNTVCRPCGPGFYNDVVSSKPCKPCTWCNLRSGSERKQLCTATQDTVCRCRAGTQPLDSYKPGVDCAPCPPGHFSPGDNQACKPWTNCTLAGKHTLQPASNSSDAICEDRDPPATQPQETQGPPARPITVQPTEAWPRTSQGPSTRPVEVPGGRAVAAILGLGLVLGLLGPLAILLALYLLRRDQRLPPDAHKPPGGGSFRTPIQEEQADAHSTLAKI

[13] = target: CD95; experiment: as above
Sequence of CD95 (chain, as listed by the source limits assumed): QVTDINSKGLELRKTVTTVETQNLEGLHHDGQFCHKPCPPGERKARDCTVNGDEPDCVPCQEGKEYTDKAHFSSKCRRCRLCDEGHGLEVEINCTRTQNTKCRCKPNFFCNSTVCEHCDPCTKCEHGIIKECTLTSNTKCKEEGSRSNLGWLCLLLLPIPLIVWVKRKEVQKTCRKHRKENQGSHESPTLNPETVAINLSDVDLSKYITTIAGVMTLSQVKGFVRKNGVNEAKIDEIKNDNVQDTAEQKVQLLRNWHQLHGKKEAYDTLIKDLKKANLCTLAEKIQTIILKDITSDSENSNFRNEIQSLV

[14] = target: full-length human CD137 on the cell surface (human) (UniProt Q07011); experiment: as above
[15] = target: GITR overexpressed on HEK293F cells (UniProt Q9Y5U5); experiment: as above
Sequence of GITR overexpressed on HEK293F cells (Q9Y5U5 26-241 limits assumed): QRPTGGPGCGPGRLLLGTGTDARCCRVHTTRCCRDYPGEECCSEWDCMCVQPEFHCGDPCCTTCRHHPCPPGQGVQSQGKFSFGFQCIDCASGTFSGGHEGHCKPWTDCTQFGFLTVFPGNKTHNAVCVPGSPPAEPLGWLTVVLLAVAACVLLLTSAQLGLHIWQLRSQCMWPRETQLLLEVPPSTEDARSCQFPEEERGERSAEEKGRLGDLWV

[16] = target: CD40 overexpressed on HEK293F cells (UniProt P25942); experiment: as above
Sequence of CD40 overexpressed on HEK293F cells (P25942 21-277 limits assumed): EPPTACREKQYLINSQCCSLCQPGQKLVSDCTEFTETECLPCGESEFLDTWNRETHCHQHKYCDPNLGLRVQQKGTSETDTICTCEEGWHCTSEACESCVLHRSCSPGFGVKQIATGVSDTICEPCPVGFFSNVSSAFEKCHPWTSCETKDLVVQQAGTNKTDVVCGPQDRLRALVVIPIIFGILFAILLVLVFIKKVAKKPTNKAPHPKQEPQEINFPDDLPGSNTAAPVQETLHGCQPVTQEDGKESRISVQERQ

[17] = target: purified C1q component of the human complement (human) (UniProt P02745); experiment: ELISA, direct binding of antibody to purified human complement C1q, A450
Sequence of purified C1q component of the human complement (human) (P02745 23-245, chain 1 of 3): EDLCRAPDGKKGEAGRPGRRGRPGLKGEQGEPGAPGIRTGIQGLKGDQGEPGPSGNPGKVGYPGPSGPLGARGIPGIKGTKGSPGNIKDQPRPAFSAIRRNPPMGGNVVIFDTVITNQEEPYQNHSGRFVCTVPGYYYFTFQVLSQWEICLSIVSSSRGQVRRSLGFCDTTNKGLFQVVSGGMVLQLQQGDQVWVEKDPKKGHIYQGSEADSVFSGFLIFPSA
Sequence of purified C1q component of the human complement (human) (P02746 28-253, chain 2 of 3, further chain): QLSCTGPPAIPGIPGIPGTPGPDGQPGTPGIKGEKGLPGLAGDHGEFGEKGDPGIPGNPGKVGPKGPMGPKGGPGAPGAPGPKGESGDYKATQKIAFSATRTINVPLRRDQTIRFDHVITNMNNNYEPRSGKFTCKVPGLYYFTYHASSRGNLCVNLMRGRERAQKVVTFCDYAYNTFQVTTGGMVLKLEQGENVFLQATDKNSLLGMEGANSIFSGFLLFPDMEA
Sequence of purified C1q component of the human complement (human) (P02747 29-245, chain 3 of 3, further chain): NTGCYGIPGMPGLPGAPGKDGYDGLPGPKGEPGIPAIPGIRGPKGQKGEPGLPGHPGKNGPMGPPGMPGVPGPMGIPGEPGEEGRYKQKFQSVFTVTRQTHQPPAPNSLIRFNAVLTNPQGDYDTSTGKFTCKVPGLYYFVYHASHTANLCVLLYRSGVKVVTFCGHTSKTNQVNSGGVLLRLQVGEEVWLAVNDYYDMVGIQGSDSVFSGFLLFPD

Sequence of Hu_CRD4 (human) (Q07011 119-159 limits assumed): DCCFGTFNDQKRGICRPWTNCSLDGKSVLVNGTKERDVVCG
Sequence of full-length monkey CD137 on the cell surface (cynomolgus monkey) (Q07011 other isoform, or with tags, fused parts or gaps): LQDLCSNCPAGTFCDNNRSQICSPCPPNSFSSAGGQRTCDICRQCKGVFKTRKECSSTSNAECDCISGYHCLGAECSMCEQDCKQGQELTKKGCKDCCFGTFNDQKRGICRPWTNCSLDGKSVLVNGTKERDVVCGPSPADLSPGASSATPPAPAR

% of cells positive for antibody binding [1]: 1.5%
% in upper right quadrant [2]: 0.23%
Mean [2]: 11000
% in upper right quadrant [3]: 0.15%
Mean [3]: 5560
% in upper right quadrant [4]: 0.14%
Mean [4]: 9600
% in upper right quadrant [5]: 0.14%
Mean [5]: 6280
% in upper right quadrant [6]: 0.1%
Mean [6]: 3680
% in upper right quadrant [7]: 0.18%
Mean [7]: 4650
% in upper right quadrant [8]: 0.18%
Mean [8]: 14800
% in upper right quadrant [9]: 0.17%
Mean [9]: 6860
% in upper right quadrant [10]: 0.2%
Mean [10]: 15000
Mean [11]: 48100
Mean [12]: 5300
Mean [13]: 5140
Mean [14]: 7360
Mean [15]: 8970
Median [16]: 5730
Substance: Isotype (antibody)

EC50 (read off the curve) [17]: 2 nM
Substance: human IgG1 isotype control antibody

% in upper right quadrant [7]: 0.16%
Mean [7]: 14600
Substance: mouse CD137L (from UniProt P41274 104-309) (ligand)
